# In article PMC6081406 (Nature Communications, 2018):
# Like-named read-outs stand apart in the source and are kept apart here.
# T1: SH3 domain of collybistin (CB-SH3) (mouse (murine), UniProt Q3UTH8 4-72)
# T1 construct: collybistin (CB1, ARHGEF9), murine, residues 4-72, encompassing the complete SH3 domain (residues 8-67); said to be identical to the SH3 domain of the human CB isoform hPEM-2; pGEX vector construct provided by T. Soykan (Brose lab); also called collybistin SH3; source: E. coli, purified (GST tag, in-situ thrombin cleavage, Superdex 200 SEC); not shown: GST, N-terminal, cleaved
# T1 sequence (looked up): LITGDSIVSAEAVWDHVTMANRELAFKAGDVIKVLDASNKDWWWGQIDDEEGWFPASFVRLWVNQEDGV
# T2: GABAA receptor alpha2 large intracellular loop (Mus musculus, UniProt P26048)
# T2 chain: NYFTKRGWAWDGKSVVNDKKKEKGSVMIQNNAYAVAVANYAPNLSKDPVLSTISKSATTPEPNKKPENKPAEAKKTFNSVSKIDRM
# What was measured:
# [1] = biological target: GABAAR α3 subunit large cytoplasmic loop (AA 392-406) (UniProt P20236)
# [2] = biological target: GABAAR α1 subunit large cytoplasmic loop (AA 334-420) (UniProt P62813)
# [3] = biological target: GABAAR α2 subunit large cytoplasmic loop (AA 335-419) (UniProt P23576)
# [4] = biological target: T1, SH3 domain of collybistin (CB-SH3); assay: ITC; CB-SH3 titrated against the GABAAR α-subunit loops and truncated α2 constructs; purified proteins; conditions: both partners purified
# [5] = biological target: T3, GABAAR α2 subunit large cytoplasmic loop (AA 335-419) (UniProt P23576 335-419); assay: ITC; CB-SH3 titrated against the receptor loops and truncated constructs; conditions: both partners purified
# T3 construct: GABAA receptor α2 subunit, large cytoplasmic loop, AA 335-419; also called α2L; GABAAR-α2L
# [6] = biological target: GABAAR α3 subunit large cytoplasmic loop (AA 392-406) (UniProt P20236); assay: as above
# [7] = biological target: GABAAR α1 subunit large cytoplasmic loop (AA 334-420) (UniProt P62813); assay: as above
# [8] = biological target: large cytoplasmic loop of the GlyR β subunit (AA 378-425); assay: as above
# [9] = biological target: GABAAR-α2 loop truncation α2-351St (AA 307-350); assay: ITC; CB-SH3 titrated against the GABAAR α-subunit loops and truncated α2 constructs; purified proteins
# [10] = biological target: GABAAR-α2 large cytoplasmic loop (AA 335-419); assay: as above
# [11] = biological target: GABAAR-α2 loop fragment α2-min3; assay: as above
# [12] = biological target: GABAAR-α2 loop truncation α2-335St (AA 307-334); assay: as above
# [13] = biological target: T2, GABAA receptor alpha2 large …; assay: ITC
molecule,measurement,setting,value
"E domain of gephyrin (GephE, AA 318-736) (domain or fragment)",Kd,[1],5 µM
same,Kd,[2],17 µM
same,Kd,[3],> 500 µM
"KGSVMIQNNAYAVAVANYAPNL (GABA-A receptor subunit alpha-2, stretch of the large cytoplasmic loop) [GABAAR-α2 loop fragment α2-min2]",Kd,[4],> 500 µM
"QNNAYAVAVANYAPN (GABA-A receptor subunit alpha-2, stretch of the large cytoplasmic loop) [GABAAR-α2 loop fragment α2-min1]",Kd,[4],> 500 µM
"SH3 domain of collybistin (CB-SH3) (domain or fragment, murine, UniProt Q3UTH8 4-72, looked up, collybistin CB1, murine, residues 4-72, encompassing the complete SH3 domain (residues 8-67); pGEX construct provided by T. Soykan (Brose lab); source: E. coli, purified (GST tag, in-situ thrombin cleavage, Superdex 200 SEC); not shown: GST, N-terminal, cleaved) LITGDSIVSAEAVWDHVTMANRELAFKAGDVIKVLDASNKDWWWGQIDDEEGWFPASFVRLWVNQEDGV",Kd,[5],1.3 µM
same,Kd,[6],> 500 µM
same,Kd,[7],500 µM
same,Kd,[8],> 500 µM
same,Kd,[9],7 µM
same,stoichiometry N,[10],0.62
"SH3 domain of collybistin (CB-SH3), Q3UTH8 4-72 (domain or fragment) LITGDSIVSAEAVWDHVTMANRELAFKAGDVIKVLDASNKDWWWGQIDDEEGWFPASFVRLWVNQEDGV",Kd,[11],> 500 µM
same,Kd,[12],> 500 µM
Collybistin SH3 (protein) ITGDSIVSAEAVWDHVTMANRGVAFKAGDVIKVLDASNKDWWWGQIDDEEGWFPASFVRLWVNQED,Kd,[13],1 µM
